Patent US20200071424A1 (SHIONOGI, published 2020)
Substitutions are numbered along the chain they refer to.

T1: human [1-305]-mouse chimeric EL (human; mouse, UniProt Q9WVG5 306-500)
T1 sequence: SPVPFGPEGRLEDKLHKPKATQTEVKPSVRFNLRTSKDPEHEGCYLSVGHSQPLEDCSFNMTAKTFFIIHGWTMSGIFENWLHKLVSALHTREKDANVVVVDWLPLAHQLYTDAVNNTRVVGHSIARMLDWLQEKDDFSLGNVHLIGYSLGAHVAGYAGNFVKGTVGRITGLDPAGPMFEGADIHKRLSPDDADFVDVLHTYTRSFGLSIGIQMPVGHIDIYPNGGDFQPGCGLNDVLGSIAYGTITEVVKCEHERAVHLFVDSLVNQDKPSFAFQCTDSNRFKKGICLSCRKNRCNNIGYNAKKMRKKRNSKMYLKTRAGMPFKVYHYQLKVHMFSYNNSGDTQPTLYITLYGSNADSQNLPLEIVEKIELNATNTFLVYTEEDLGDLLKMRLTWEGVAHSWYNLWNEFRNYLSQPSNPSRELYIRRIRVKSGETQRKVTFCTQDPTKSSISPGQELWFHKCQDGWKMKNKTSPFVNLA

B1: h13B3-S2 (antibody, V domains shown)
VH: QVQLVQSGAEVKKPGASVKVSCKASGYTFTEYTMHWVRQAPGQGLEWMGSINPYYGGTSYNEKFKDRVTSTRDTSISTAYMELSRLRSDDTVVYYCARYGNYVGYFDYWGQGTTVTVSS
VL: EIVLTQSPGTLSLSPGERATLSCRASSSVHYMYWYQQKPGQAPRLLIYYTSNLAPGIPDRFSGSGSGTDFTLTISRLEPEDFAVYYCQQFTSSPYTFGGGTKVEIK
B2: h13B3-S3 (antibody, V domains shown)
VH: B1 VH with S70M, I76T, A79V, R85S, D89E, V92A
VL: B1 VL with G9A, D59A, R76S
B3: h13B3-S4 (antibody, V domains shown)
VH: B1 VH
VL: B1 VL with G9A, D59A, R76S
B4: h23H8-S3 (antibody, V domains shown)
VH: QVQLVQSGAEVKKPGASVKVSCKASGYTFTDNTIHWVRQAPGQGLEWMGHINPYYGGTNNNEKFKDRVTMTRDTSISTAYMELSRLRSDDTAVYYCARKGIYYSSPFDYWGQGTTVTVSS
VL: DIQMTQSPSSLSASVGDRVTITCRASQDINNYLNWYQQKPGKAPKLLISYTSKLHSGVPSRFSGSGSGTDFTLTISSLQPEDFATYYCQQGNTLPFTFGQGTKLEIK
B5: h16B3-S5 (antibody, V domains shown)
VH: EVQLVESGGGLVQPGGSLRLSCAASGFTFSGYTMSWVRQAPGKGLEWVSEISFARDRAFYPDTVKGRFTISRDNSKNTLYLQMNSLRAEDTAVYYCARLGGKNRDFWYFDLWGQGTTVTVSS
VL: DIVMTQSPDSLAVSLGERATINCRASESVEYYGTSLMQWYQQKPGQPPKLLIYAASNVESGVPDRFSGSGSGTDFTLTISSLQAEDVAVYYCQQSWKVPFTFGQGTKLEIK
notes: humanized
B6: h16B3-F1 (antibody, V domains shown)
VH: B5 VH with K102R, R104H, F106Y, L111V
VL: DIQMTQSPSSLSASVGDRVTITCRASESVEYYGTSLMQWYQQKPGKAPKLLIYAASNVESGVPSRFSGSGSGTDFTLTISSLQPEDFATYYCQQSWKVPFTFGQGTKLEIK
notes: humanized
B7: h16B3-S1 (antibody, V domains shown)
VH: B5 VH with R98K, K102R, R104H, F106Y, L111V
VL: B5 VL
B8: h16B3-F2 (antibody, V domains shown)
VH: B5 VH with K102R, R104H, F106Y, L111V
VL: EIVMTQSPATLSVSPGERATLSCRASESVEYYGTSLMQWYQQKPGQAPRLLIYAASNVESGIPARFSGSGSGTEFTLTISSLQSEDFAVYYCQQSWKVPFTFGQGTKLEIK
notes: humanized
B9: h16B3-S8 (antibody, V domains shown)
VH: B5 VH with G31A, E50D
VL: B5 VL with K97R
notes: humanized
B10: h16B3-F3 (antibody, V domains shown)
VH: B5 VH with K102R, R104H, F106Y, L111V
VL: B8 VL with M4L, A9G, V13L, A64D, E74D, S81R, Q83E, S84P
notes: humanized
B11: h16B3-S7 (antibody, V domains shown)
VH: B5 VH with G31A, E50D
VL: B5 VL
notes: humanized
B12: h16B3-S4 (antibody, V domains shown)
VH: B5 VH with R104H, L111V
VL: B5 VL with K97R
notes: humanized
B13: h16B3-S6 (antibody, V domains shown)
VH: B5 VH
VL: B5 VL with K97R
notes: humanized
B14: h16B3-S3 (antibody, V domains shown)
VH: B5 VH with R104H, L111V
VL: B5 VL
notes: humanized
B15: h53A11-S2 (antibody, V domains shown)
VH: QVQLVQSGAEVKKPGASVKVSCKASGYTFTDYTMHWVRQAPGQRLEWMGGINPYYGGTTYNEKFKDRVTITRDTSASTAYMELSSLRSEDTAVYYCAKGDYYGGSYNYWGQGTTVTVSS
VL: EIVMTQSLATLSVSPGERATLSCRASQDISNSLHWYQQKPGQAPRLLIYYASQSISGIPARFSGSGSGTEFTLTISSLQSEDFAVYYCQQSNSWPYTFGQGTKLEIK
B16: h53A11-S3 (antibody, V domains shown)
VH: B15 VH
VL: B15 VL with L8P, Y49K
B17: h55A1-F5 (antibody, V domains shown)
VH: QVQLVQSGAEVKKPGASVKVSCKASGYTFTNYGMNWVRQAPGQGLEWMGWINTYSGVPTYAGDFKGRFTFTLDTSTSTAYMELSSLRSEDTAVYYCARRGYYGRRYFDVWGKGTTVTVSS
VL: DIQLTQSPSSLSASVGDRVTITCKASQSVDYDVDSYMHWYQQKPGKAPKLLIYAASNLASGVPSRFSGSGSGTDFTLTISSLQPEDFATYYCQQTIEDPPTFGGGTKVEIK
notes: humanized
B18: h55A1-F2 (antibody, V domains shown)
VH: B17 VH with F68V, F70M, L72T, S84R, E89D
VL: EIVMTQSPATLSVSPGERATLSCKASQSVDYDVDSYMHWYQQKPGQAPRLLIYAASNLASGIPARFSGSGSGTEFTLTISSLQSEDFAVYYCQQTIEDPPTFGGGTKVEIK
notes: humanized
B19: h55A1-F3 (antibody, V domains shown)
VH: B17 VH with F68V, F70M, L72T, S84R, E89D
VL: B17 VL
notes: humanized
B20: h55A1-F1 (antibody, V domains shown)
VH: B17 VH with A9S, V11L, T69V, T71S, T76V, M81L, E82Q, L83I, R87K, S88A
VL: B17 VL with L77F, F87I
notes: humanized
B21: h55A1-S4 (antibody, V domains shown)
VH: QVQLVQSGSELKKPGASVKVSCKASGYTFTNYAMNWVRQAPGQGLEWMGWINTYSGVGTYAGDFKGRFVFSLDTSVSTAYLQISSLKAEDTAVYYCARRGFYGRRFFDVWGKGTTVTVSS
VL: DIVLTQSPASLAVSPGQRATITCKASQSVDYDVDSYMHWYQQKPGQPPKLLIYAASNLASGVPARFSGSGSGTDFTLTINPVEANDTANYYCQQTIEDPPTFGGGTKVEIK
notes: humanized
B22: h55A1-S3 (antibody, V domains shown)
VH: B21 VH with A33G, M34L, G58P, F101Y
VL: B21 VL with Q94N
notes: humanized
B23: h55A1-S5 (antibody, V domains shown)
VH: B21 VH
VL: B21 VL with Q94N
notes: humanized
B24: h55A1-S2 (antibody, V domains shown)
VH: B21 VH with A33G, M34L, G58P, F101Y
VL: B21 VL
notes: humanized
B25: h55A1-S7 (antibody, V domains shown)
VH: B21 VH with M34L, D63E
VL: B21 VL with Q94N
notes: humanized
B26: h55A1-S6 (antibody, V domains shown)
VH: B21 VH with M34L, D63E
VL: B21 VL
notes: humanized

Biological target: T1, human [1-305]-mouse chimeric EL
Assay: cell-based or functional assay

Question: How did the “Neutralizing activity IC50” value turn out when B1 was run?
Answer: 9 nM

Question: B2 was tested. Which “Neutralizing activity IC50” value did it give?
Answer: 2.1 nM

Question: How did the “Neutralizing activity IC50” value turn out when B3 was run?
Answer: 2.6 nM

Question: Which “Neutralizing activity IC50” value does the source give for B4 here?
Answer: 2 nM

Question: With B5 as the binder, how does the “Neutralizing activity IC50” value read?
Answer: 1.2 nM

Question: How did the “Neutralizing activity IC50” value turn out when B6 was run?
Answer: 2.3 nM

Question: Which “Neutralizing activity IC50” value does the source give for B7 here?
Answer: 2.7 nM

Question: With B8 as the binder, how does the “Neutralizing activity IC50” value read?
Answer: 2.4 nM

Question: For B9, which “Neutralizing activity IC50” value is on record?
Answer: 1.4 nM

Question: Which “Neutralizing activity IC50” value does the source give for B10 here?
Answer: 2 nM

Question: How did the “Neutralizing activity IC50” value turn out when B11 was run?
Answer: 1.4 nM

Question: For B12, which “Neutralizing activity IC50” value is on record?
Answer: 1.7 nM

Question: For B13, which “Neutralizing activity IC50” value is on record?
Answer: 1 nM

Question: With B14 as the binder, how does the “Neutralizing activity IC50” value read?
Answer: 1.9 nM

Question: For B15, which “Neutralizing activity IC50” value is on record?
Answer: 2.7 nM

Question: How did the “Neutralizing activity IC50” value turn out when B16 was run?
Answer: 1.8 nM

Question: For B17, which “Neutralizing activity IC50” value is on record?
Answer: 1.3 nM

Question: B18 was tested. Which “Neutralizing activity IC50” value did it give?
Answer: 2.1 nM

Question: How did the “Neutralizing activity IC50” value turn out when B19 was run?
Answer: 1.1 nM

Question: How did the “Neutralizing activity IC50” value turn out when B20 was run?
Answer: 1.9 nM

Question: With B21 as the binder, how does the “Neutralizing activity IC50” value read?
Answer: 1.1 nM

Question: With B22 as the binder, how does the “Neutralizing activity IC50” value read?
Answer: 1.2 nM

Question: For B23, which “Neutralizing activity IC50” value is on record?
Answer: 1.3 nM

Question: For B24, which “Neutralizing activity IC50” value is on record?
Answer: 1.1 nM

Question: With B25 as the binder, how does the “Neutralizing activity IC50” value read?
Answer: 1 nM

Question: With B26 as the binder, how does the “Neutralizing activity IC50” value read?
Answer: 1.2 nM

Biological target: T1, human [1-305]-mouse chimeric EL
Assay: Biacore; EL captured by anti-C2-tag Ab; bivalent fit
Method: The binding affinities of anti-EL antibodies were measured using Biacore. […] Then, anti-EL humanized antibodies were added and the binding affinities were calculated by bivalent fitting of BIAevaluation software.

Question: How did the Kd turn out when B5 was run?
Answer: 1 nM

Question: And the koff?
Answer: 5.7e-05 s⁻¹

Question: What about the kon of the same binder?
Answer: 54000 M⁻¹ s⁻¹

Question: Which Kd does the source give for B6 here?
Answer: 5.2 nM

Question: What about the koff of the same binder?
Answer: 0.0002 s⁻¹

Question: And the kon?
Answer: 38000 M⁻¹ s⁻¹

Question: With B8 as the binder, how does the Kd read?
Answer: 3.8 nM

Question: What about the koff of the same binder?
Answer: 0.00011 s⁻¹

Question: What about the kon of the same binder?
Answer: 29000 M⁻¹ s⁻¹

Question: B9 was tested. Which Kd did it give?
Answer: 0.78 nM

Question: And the koff?
Answer: 4e-05 s⁻¹

Question: And the kon?
Answer: 52000 M⁻¹ s⁻¹

Question: Which results are given for B10?
Answer: Kd: 10 nM; koff: 0.0002 s⁻¹; kon: 19000 M⁻¹ s⁻¹

Question: B11 was tested. Which Kd did it give?
Answer: 1.2 nM

Question: And the koff?
Answer: 5.9e-05 s⁻¹

Question: What about the kon of the same binder?
Answer: 50000 M⁻¹ s⁻¹

Question: Which results are given for B12?
Answer: Kd: 3 nM; koff: 0.00018 s⁻¹; kon: 61000 M⁻¹ s⁻¹

Question: B13 was tested. Which Kd did it give?
Answer: 1 nM

Question: And the koff?
Answer: 5.8e-05 s⁻¹

Question: And the kon?
Answer: 60000 M⁻¹ s⁻¹

Question: Which results are given for B14?
Answer: Kd: 4.5 nM; koff: 0.00013 s⁻¹; kon: 30000 M⁻¹ s⁻¹

Question: What does the source list for B17?
Answer: Kd: 0.11 nM; koff: 1.6e-05 s⁻¹; kon: 140000 M⁻¹ s⁻¹

Question: Which Kd does the source give for B18 here?
Answer: 0.17 nM

Question: What about the koff of the same binder?
Answer: 2.6e-05 s⁻¹

Question: And the kon?
Answer: 160000 M⁻¹ s⁻¹

Question: How did the Kd turn out when B19 was run?
Answer: 0.29 nM

Question: What about the koff of the same binder?
Answer: 3.3e-05 s⁻¹

Question: What about the kon of the same binder?
Answer: 110000 M⁻¹ s⁻¹

Question: For B20, which Kd is on record?
Answer: 0.084 nM

Question: And the koff?
Answer: 1.7e-05 s⁻¹

Question: And the kon?
Answer: 200000 M⁻¹ s⁻¹

Question: B21 was tested. Which Kd did it give?
Answer: 3 nM

Question: What about the koff of the same binder?
Answer: 0.00024 s⁻¹

Question: And the kon?
Answer: 80000 M⁻¹ s⁻¹

Question: With B22 as the binder, how does the Kd read?
Answer: 4.2 nM

Question: And the koff?
Answer: 0.00051 s⁻¹

Question: What about the kon of the same binder?
Answer: 120000 M⁻¹ s⁻¹

Question: What does the source list for B23?
Answer: Kd: 12 nM; koff: 0.00033 s⁻¹; kon: 27000 M⁻¹ s⁻¹

Question: What does the source list for B24?
Answer: Kd: 11 nM; koff: 0.00037 s⁻¹; kon: 35000 M⁻¹ s⁻¹

Question: Which results are given for B25?
Answer: Kd: 5.1 nM; koff: 0.00055 s⁻¹; kon: 110000 M⁻¹ s⁻¹

Question: How did the Kd turn out when B26 was run?
Answer: 1.4 nM

Question: What about the koff of the same binder?
Answer: 6.3e-05 s⁻¹

Question: And the kon?
Answer: 47000 M⁻¹ s⁻¹
